Measured values: paper PMC11170914, “A distinct dimer configuration of a diatom Get3 forming a tetrameric complex with its tail-anchored membrane cargo” (BMC Biology, 2024)

B1: Get3 from zebra fish (recombinant Get3/TA complex) (natural protein)
chain: not shown
notes: Get3 of zebra fish (Danio rerio); also called zebra fish Get3; source: recombinant, purified as Get3/TA complex
B2: Get3 from yeast (recombinant Get3/TA complex) (natural protein, UniProt Q12154 1-354, looked up)
chain: MDLTVEPNLHSLITSTTHKWIFVGGKGGVGKTTSSCSIAIQMALSQPNKQFLLISTDPAHNLSDAFGEKFGKDARKVTGMNNLSCMEIDPSAALKDMNDMAVSRANNNGSDGQGDDLGSLLQGGALADLTGSIPGIDEALSFMEVMKHIKRQEQGEGETFDTVIFDTAPTGHTLRFLQLPNTLSKLLEKFGEITNKLGPMLNSFMGAGNVDISGKLNELKANVETIRQQFTDPDLTTFVCVCISEFLSLYETERLIQELISYDMDVNSIIVNQLLFAENDQEHNCKRCQARWKMQKKYLDQIDELYEDFHVVKMPLCAGEIRGLNNLTKFSQFLNKEYNPITDGKVIYELEDKE
notes: Get3 of yeast; also called yeast Get3; source: recombinant, purified as Get3/TA complex

Target: the molecule itself
Experiment: SEC; recombinant Get3/TA complex from yeast or zebra fish; SEC and SDS-PAGE (Fig. S10); conditions not shown

| Protein | stoichiometry N |
| --- | --- |
| B1 | 2 |
| B2 | 2 |
